From patent publication US20190218553, “VON WILLEBRAND FACTOR (VWF)-TARGETING AGENTS AND METHODS OF USING THE SAME” (DUKE UNIVERSITY, published 2019)

Assays:
[1] = target: T1, von Willebrand factor (VWF) (Homo sapiens, UniProt P04275 P04275:764-2813); test: filter; NB; 2 mM CaCl2, 37 C; settings: Haematologic Technologies Inc, label: 5'-32P
Method: (§1) Affinity constants (Kd values) were determined using double-filter nitrocellulose filter binding assays (Rusconi et al, Thromb. Haemost. $4:841-848 (2000)). All binding studies were performed in binding buffer F (20 mM HEPES, pH 7.4, 150 mM NaCl, 2 mM CaCl₂, and 0.01% BSA) at 37° C. Human purified VWF (factor VIII free) was purchased from Haematologic Technologies Inc. (Essex Junction, Vt.) and used in the double-filter nitrocellulose filter binding assay to determine the Kd of the aptamers. Briefly, RNA were end-labeled at the 5′ end with T4 polynucleotide kinase (New England Biolabs, Beverly, Mass.) and [γ³²P] ATP (Amersham Pharmacia Biotech, Piscataway, N.J.) (Fitzwater and Polisky, Methods Enzymol. 267:275-301 (1996)). End-labeled RNA was diluted in binding buffer F, heat denatured at 65° C. for 5 minutes, and subsequently equilibrated at 37° C. Direct binding was performed by incubating trace ³²P-RNA with varying concentrations of VWF protein in binding buffer F at 37° C. for 5 min. The fraction of the nucleic acid-protein complex which bound to the nitrocellulose membrane was quantified with a phosphorimager (Molecular Dynamics, Sunnyvale, Calif.). Non-specific binding of the radiolabeled nucleic acid was subtracted out of the binding such that only specific binding remained (Wong and Lohman, Proc. Natl. Acad. Sci. USA 90:5428-5432 (1993)).

[2] = target: T1, von Willebrand factor (VWF); test: filter; Bmax 61%; 2 mM CaCl2, 37 C; settings: tags: factor VIII free, Haematologic Technologies Inc; label: 5'-32P
Method: as §1

[3] = target: T1, von Willebrand factor (VWF); test: filter; Bmax 77%; 2 mM CaCl2, 37 C; settings: Haematologic Technologies Inc, label: 5'-32P
Method: as §1

[4] = target: T1, von Willebrand factor (VWF); test: filter; Bmax 85%; 2 mM CaCl2, 37 C; settings: Haematologic Technologies Inc, label: 5'-32P
Method: as §1

[5] = target: T1, von Willebrand factor (VWF); test: filter; Bmax 76%; 2 mM CaCl2, 37 C; settings: Haematologic Technologies Inc, label: 5'-32P
Method: as §1

[6] = target: T1, von Willebrand factor (VWF); test: filter; NB; loop CAGA mutated; 2 mM CaCl2, 37 C; settings: tags: factor VIII free, Haematologic Technologies Inc; label: 5'-32P
Method: as §1

[7] = tags: factor VIII free human purified VWF

ACGAACUCCCUCGAUUAUUCGACGACAGACGU (ssRNA, 2'-F C and U; 2'-OH A and G; 3' idT) [T62]: no binding ([1]; tags: factor VIII free).

Binder ACGAACUGCCCUCGAUCGACGCACAGACGU (ssRNA, mAmCmGmAmAmCfUmGfCfCfCmUmCmGmAmUmCmGmAfCmGfCmAmCmAmGmAmCmGfU-idT) [T59 vrt5] has a Kd [2] of 260 nM.

B1: T20 (ssRNA)
RNA: GGGAGGUGGACGAACUGCCCUCUACUUUCAUGUUGACGCACAGACGACUCGCUG
modifications: 2'-F C and U; 2'-OH A and G
B1: no binding ([1]; tags: factor VIII free).

ACGAACUGCCCUCGCGACGCACAGACGU (ssRNA, 2'-F C and U; 2'-OH A and G; 3' idT) [T58]: no binding ([1]; tags: factor VIII free).

ACGAACUGCCCUCUAUUAUUUGACGCACAGACGU (ssRNA, 2'-F C and U; 2'-OH A and G; 3' idT) [T90] showed a Kd ([3]; tags: factor VIII free) of 3.8 nM.

In the case of ACGAACUGCCCUCUAUUAUUUGACGCACAGACGU (ssRNA, 2'-F C9,C10,C11,C24,C26; ribo G25; rest 2'-OMe; 3' idT) [T90 vrt4], the Kd [4, 7] is reported as 10.2 nM.

B2: T19 (ssRNA)
RNA: GGGAGGUGGACGAACUGCCCUCUUUCAUGUUGCUGACGCACAGACGACUCGCUG
modifications: 2'-F C and U; 2'-OH A and G
B2: no binding ([1]; tags: factor VIII free).

ACGACUGCCCUCAGCUACUUUCAUGUUGCUGACGCACACGU (ssRNA, 2'-F C and U; 2'-OH A and G; 3' idT) [T55]: no binding ([1]; tags: factor VIII free).

ACGAACUGCCCUCGCUACUUUCAUGUUGCGACGCACAGACGU (ssRNA, 2'-F C and U; 2'-OH A and G; 3' idT) [T34] was tested, and the Kd [2] was 10 nM.

In the case of ACGAACUGCCCUCGAUCGACGCACAGACGU (ssRNA, 2'-F C10,C11,C20,C22,U30; ribo G21; rest 2'-OMe; 3' idT) [T59 vrt29], the Kd [5, 7] is reported as 19 nM.

Work on ACGAACUGCCCUCGAUCGACGCACAGACGU (ssRNA, 2'-F U7,C9,C10,C11,U12,C20,C22,U30; ribo G21; rest 2'-OMe; 3' idT) [T59 vrt23] yielded a Kd [3, 7] of 1.7 nM.

Work on ACGAACUGCCCUCGUAUUAUUUCGACGCACAGACGU (ssRNA, 2'-F C9,C10,C11,C26,C28; ribo G27; rest 2'-OMe; 3' idT) [T89 vrt4] yielded a Kd [4, 7] of 8.4 nM.

For ACGAACUGCCCUCGUUUCAUCGACGCACAGACGU (ssRNA, 2'-F C9,C10,C11,C24,G25,C26,U34; rest 2'-OMe; 3' idT) [T86 vrt6], the Kd [4, 7] was 52 nM.

B3: T13 (ssRNA)
RNA: GGGAGGUGCCCUCAGCUACUUUCAUGUUGCUGACGCACAGACGACUCGCUG
modifications: 2'-F C and U; 2'-OH A and G
B3: no binding ([1]; tags: factor VIII free).

ACGAACUGCCCUUUAUACGCACAGACGU (ssRNA, 2'-F C and U; 2'-OH A and G; 3' idT) [T65]: no binding ([1]; tags: factor VIII free).

For ACGAACUGCCCUCGAUCGACGCACAGACGUUUUUU (ssRNA, mAmCmGmAmAmCmUmGfCfCfCmUmCmGmAmUmCmGmAfCfGfCmAmCmAmGmAmCmGfUmUmUmUmUmU-idT) [T79 vrt6], the Kd [2] was 60.5 nM.

ACGAACUGCCCUCUUUUUUUUGACGCACCCCCGU (ssRNA, 2'-F C and U; 2'-OH A and G; 3' idT) [T96]: no binding [6].

ACGAACUGCCCUCGUUUCAUCGACGCACCCCCGU (ssRNA, 2'-F C and U; 2'-OH A and G; 3' idT) [T97]: no binding [6].

With ACGAACUGCCCUCGCACUUAUGUGCGACGCACAGACGU (ssRNA, 2'-F C and U; 2'-OH A and G; 3' idT) [T50] the Kd [2] was 9.6 nM.

ACGAACUGCUCGAUUAUUCGAGCACAGACGU (ssRNA, 2'-F C and U; 2'-OH A and G; 3' idT) [T66]: no binding ([1]; tags: factor VIII free).

GGGAGGUGGACGAACUGCCCUACGCACAGACGACUCGCUG (ssRNA, 2'-F C and U; 2'-OH A and G) [T17]: no binding ([1]; tags: factor VIII free).

In the case of ACGAACUGCCCUCGAUCGACGCACAGACGU (ssRNA, rAfCrGmAmAmCfUrGfCfCfCfUmCmGmAmUmCmGrAfCmGfCrAmCmAmGmAfCrGfU-idT) [T59 vrt13], the Kd ([5]; tags: factor VIII free) is reported as 29 nM.

GGGAGGUCAGCUACUUUCAUGUUGCUGA (ssRNA, 2'-F C and U; 2'-OH A and G) [T14]: no binding ([1]; tags: factor VIII free).

Binder ACGAACUGCCCUCGAUCGACGCACAGACGU (ssRNA, 2'-F U7,C9,C10,C11,U12,C20,C22,U30; ribo A23; rest 2'-OMe; 3' idT) [T59 vrt21] has a Kd [4, 7] of 27 nM.

Work on ACGAACUGCCCUCGAUCGACGCACAGACGUACCCG (ssRNA, 2'-F C and U; 2'-OH A and G; 3' idT) [T82] yielded a Kd ([5]; tags: factor VIII free) of 5.3 nM.

With ACGAACUGCCCUCGAUCGACGCACAGACGUAAAAA (ssRNA, 2'-F C9,C10,C11,C20,C22; ribo G21; rest 2'-OMe; 3' idT) [T83 vrt4] the Kd [3, 7] was 20 nM.

For ACGAACUGCCCUCGAUCGACGCACAGACGUACACG (ssRNA, 2'-F C and U; 2'-OH A and G; 3' idT) [T84], the Kd ([5]; tags: factor VIII free) was 3.7 nM.

B4: T82 vrt1 (ssRNA)
RNA: ACGAACUGCCCUCGAUCGACGCACAGACGUACCCG
modifications: 2'-F C2,U7,C9,C10,C11,U12,C20,C22,C28,U30; ribo A1,G3,G8,A19,G21,A23,G29; rest 2'-OMe; 3' idT
Work on B4 yielded a Kd [5, 7] of 3.8 nM.

With ACGAACUGCCCUCGAUCGACGCACAGACGUACACG (ssRNA, 2'-F C9,C10,C11,C20,C22; ribo G21; rest 2'-OMe; 3' idT) [T84 vrt4] the Kd [3, 7] was 22 nM.

Binder ACGAACUGCCCUCGAUCGACGCACAGACGUAAAAA (ssRNA, 2'-F C and U; 2'-OH A and G; 3' idT) [T83] has a Kd [2] of 3.5 nM.

ACGAACUGCCCUCGAUCGACGCACAGACGU (ssRNA, rAfCrGmAmAmCfUrGfCfCfCfUmCmGmAmUmCmGrAfCrGfCrAmCmAmGmAfCrGfU-idT) [T59 vrt1] was tested, and the Kd ([5]; tags: factor VIII free) was 1.5 nM.

ACGAACUGCCCUCGAUUAUUCGACCACAGACGU (ssRNA, 2'-F C and U; 2'-OH A and G; 3' idT) [T67]: no binding ([1]; tags: factor VIII free).

In the case of ACGAACUGCCCUCGAUCGACGCACAGACGU (ssRNA, rAfCrGmAmAmCfUrGfCfCfCfUmCmGmAmUmCmGrAfCrGfCmAmCmAmGmAfCrGfU-idT) [T59 vrt12], the Kd ([4]; tags: factor VIII free) is reported as 6.9 nM.

In the case of ACGAACUGCCCUCGAUCGACGCACAGACGUAAA (ssRNA, 2'-F C and U; 2'-OH A and G; 3' idT) [T80], the Kd ([3]; tags: factor VIII free) is reported as 6.3 nM.

ACGAACUGCCCCGCACAGACGU (ssRNA, 2'-F C and U; 2'-OH A and G; 3' idT) [T61]: no binding ([1]; tags: factor VIII free).

ACGAACUGCCCUCAGCUACUUUCAUGUUGCUGACGCACAACGU (ssRNA, 2'-F C and U; 2'-OH A and G; 3' idT) [T53]: no binding ([1]; tags: factor VIII free).

ACGAACUGCCCUCAGCUACUUUCAUGUUGCUGACGCACGACGU (ssRNA, 2'-F C and U; 2'-OH A and G; 3' idT) [T54]: no binding ([1]; tags: factor VIII free).

ACGAAAUGGAAUCGUAAGAACCACAGACGUUUUUU (ssRNA, all 2'-OMe; 3' idT) [DTRI-022]: no binding [1, 7].

ACGAACUGCCCUACGCACAGACGU (ssRNA, 2'-F C and U; 2'-OH A and G; 3' idT) [T56]: no binding ([1]; tags: factor VIII free).

Binder ACGAACUGCCCUCGUUAUCGACGCACAGACGU (ssRNA, 2'-F C and U; 2'-OH A and G; 3' idT) [T71] has a Kd ([3]; tags: factor VIII free) of 10 nM.

B5: T87 vrt1 (ssRNA)
RNA: ACGAACUGCCCUCUUUCAUGACGCACAGACGU
modifications: 2'-F C2,U7,C9,C10,C11,U12,C22,C24,C30,U32; ribo A1,G3,G8,A21,G23,A25,G31; rest 2'-OMe; 3' idT
B5 showed a Kd [4, 7] of 1.5 nM.

For ACGAACUGCCCUCUAUUUCAUUUGACGCACAGACGU (ssRNA, 2'-F C and U; 2'-OH A and G; 3' idT) [T93], the Kd ([5]; tags: factor VIII free) was 6.4 nM.

For ACGAACUGCCCUCUAUUUCAUUUGACGCACAGACGU (ssRNA, 2'-F C9,C10,C11,C26,G27,C28; rest 2'-OMe; 3' idT) [T93 vrt7], the Kd [5, 7] was 20 nM.
